One test addresses T1, DENV4 NS1 (Dengue virus 4, UniProt P09866 775-1126).
T1 sequence: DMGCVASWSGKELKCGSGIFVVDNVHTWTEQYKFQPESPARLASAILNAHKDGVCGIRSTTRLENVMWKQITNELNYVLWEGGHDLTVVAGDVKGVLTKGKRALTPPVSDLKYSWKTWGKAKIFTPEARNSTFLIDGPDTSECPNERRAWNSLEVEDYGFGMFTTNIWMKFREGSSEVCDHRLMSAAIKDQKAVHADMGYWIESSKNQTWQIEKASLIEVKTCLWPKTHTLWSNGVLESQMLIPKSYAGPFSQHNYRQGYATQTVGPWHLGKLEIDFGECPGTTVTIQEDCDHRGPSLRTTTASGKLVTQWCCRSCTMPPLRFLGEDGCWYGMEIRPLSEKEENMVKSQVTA
Description: ELISA, 2B7 titrated on DENV4 NS1, OD450nm. Background: In an ELISA, binding on a coated surface is turned into a signal by an enzyme label.

For test [1], the target named is T2, SLEV NS1 (Saint Louis encephalitis virus NS1) (Saint Louis encephalitis virus, UniProt P09732 790-1141).
T2 sequence: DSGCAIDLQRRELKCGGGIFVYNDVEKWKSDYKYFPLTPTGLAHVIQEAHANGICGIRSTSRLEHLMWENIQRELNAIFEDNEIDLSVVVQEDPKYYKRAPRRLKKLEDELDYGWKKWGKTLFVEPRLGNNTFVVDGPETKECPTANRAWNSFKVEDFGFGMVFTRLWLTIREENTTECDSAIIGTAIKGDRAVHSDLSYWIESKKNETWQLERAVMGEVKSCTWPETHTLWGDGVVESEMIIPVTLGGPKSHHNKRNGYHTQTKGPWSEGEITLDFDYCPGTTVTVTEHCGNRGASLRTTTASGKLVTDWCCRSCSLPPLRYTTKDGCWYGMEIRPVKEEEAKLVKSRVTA
The test can be described thus: ELISA, 2B7 titrated on SLEV NS1, OD450nm.

Test [2] addresses T3, WSLV NS1 (Wesselsbron virus NS1) (Wesselsbron virus, UniProt C5H431 771-1123).
T3 sequence: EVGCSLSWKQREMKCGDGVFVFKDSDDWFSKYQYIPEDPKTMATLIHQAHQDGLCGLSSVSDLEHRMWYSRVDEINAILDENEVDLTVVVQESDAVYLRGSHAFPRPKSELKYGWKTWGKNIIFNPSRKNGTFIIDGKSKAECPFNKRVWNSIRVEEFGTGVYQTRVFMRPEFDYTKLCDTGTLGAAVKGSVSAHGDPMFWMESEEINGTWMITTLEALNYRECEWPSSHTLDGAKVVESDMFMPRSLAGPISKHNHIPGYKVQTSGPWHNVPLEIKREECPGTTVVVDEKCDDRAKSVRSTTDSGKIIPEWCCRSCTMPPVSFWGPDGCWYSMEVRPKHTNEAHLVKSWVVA
Description: ELISA, 2B7 titrated on WSLV NS1, OD450nm.

Another test has as its target T4, DENV3 NS1 (Dengue virus 3, UniProt Q6YMS4 774-1125).
T4 sequence: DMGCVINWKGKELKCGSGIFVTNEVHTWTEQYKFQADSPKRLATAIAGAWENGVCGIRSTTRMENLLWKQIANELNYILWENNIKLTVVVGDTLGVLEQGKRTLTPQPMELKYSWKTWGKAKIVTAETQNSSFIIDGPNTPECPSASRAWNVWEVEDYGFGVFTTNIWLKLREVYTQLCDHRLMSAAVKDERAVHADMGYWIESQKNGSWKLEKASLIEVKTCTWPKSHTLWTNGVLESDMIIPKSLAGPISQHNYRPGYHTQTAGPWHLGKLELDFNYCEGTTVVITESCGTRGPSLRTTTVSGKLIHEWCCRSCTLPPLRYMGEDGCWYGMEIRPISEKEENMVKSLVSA
Description: ELISA, 2B7 titrated on DENV3 NS1, OD450nm.

For test [3], the target named is T5, recombinant NS1 wing domain (residues 38-151) (Dengue virus 2, UniProt P07564 813-926).
T5 sequence: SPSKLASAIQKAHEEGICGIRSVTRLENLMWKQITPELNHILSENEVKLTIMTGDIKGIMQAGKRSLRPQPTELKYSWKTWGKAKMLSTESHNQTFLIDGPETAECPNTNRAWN
The test can be described thus: direct ELISA on plates coated with recombinant NS1 domains, OD 405 nm.

Test [4] has as its target T6, DENV1 NS1 (Dengue virus 1, UniProt P17763 776-1127).
T6 construct: also called dengue virus serotype 1 NS1
T6 chain: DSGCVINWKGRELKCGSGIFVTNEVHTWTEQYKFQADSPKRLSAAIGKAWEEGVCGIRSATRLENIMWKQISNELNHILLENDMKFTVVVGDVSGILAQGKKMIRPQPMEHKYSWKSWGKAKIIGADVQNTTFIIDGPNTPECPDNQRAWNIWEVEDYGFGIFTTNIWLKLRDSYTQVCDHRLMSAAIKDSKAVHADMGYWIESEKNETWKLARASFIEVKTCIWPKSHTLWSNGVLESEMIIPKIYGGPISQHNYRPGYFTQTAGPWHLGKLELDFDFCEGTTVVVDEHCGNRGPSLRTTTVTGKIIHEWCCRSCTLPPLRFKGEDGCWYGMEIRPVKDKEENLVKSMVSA
Description: ELISA, 2B7 titrated on DENV1 NS1, OD450nm.

The target in test [5] is T7, USUV NS1 (Usutu virus NS1) (Usutu virus, UniProt Q5WPU5 794-1145).
T7 chain: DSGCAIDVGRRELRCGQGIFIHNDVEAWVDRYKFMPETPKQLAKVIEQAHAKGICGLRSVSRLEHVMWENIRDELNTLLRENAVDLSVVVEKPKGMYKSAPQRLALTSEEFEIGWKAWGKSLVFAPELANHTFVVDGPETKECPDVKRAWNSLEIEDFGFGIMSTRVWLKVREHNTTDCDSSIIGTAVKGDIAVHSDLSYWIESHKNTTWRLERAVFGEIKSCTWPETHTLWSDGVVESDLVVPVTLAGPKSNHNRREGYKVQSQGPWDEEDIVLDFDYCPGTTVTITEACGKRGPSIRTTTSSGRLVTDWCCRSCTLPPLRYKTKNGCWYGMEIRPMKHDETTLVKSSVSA
The test can be described thus: ELISA, 2B7 titrated on USUV NS1, OD450nm.

For test [6], the target named is T8, JEV NS1 (Japanese encephalitis virus NS1) (Japanese encephalitis virus, UniProt P0DOH7 795-1146).
T8 sequence: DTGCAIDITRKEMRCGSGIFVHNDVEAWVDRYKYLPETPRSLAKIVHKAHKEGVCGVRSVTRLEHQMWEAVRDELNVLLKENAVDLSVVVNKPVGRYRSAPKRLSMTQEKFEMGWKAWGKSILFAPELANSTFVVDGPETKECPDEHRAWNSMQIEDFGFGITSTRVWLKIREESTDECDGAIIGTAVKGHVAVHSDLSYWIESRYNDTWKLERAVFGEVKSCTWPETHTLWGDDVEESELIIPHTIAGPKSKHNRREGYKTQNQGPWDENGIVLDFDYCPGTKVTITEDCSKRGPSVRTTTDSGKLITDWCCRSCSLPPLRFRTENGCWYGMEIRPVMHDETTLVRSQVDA
The test can be described thus: ELISA, 2B7 titrated on JEV NS1, OD450nm.

For test [7], the target named is T6, DENV1 NS1. The test can be described thus: crystal structure 3.3 Å.
Test [8] concerns the target T5, recombinant NS1 wing domain (residues …). Description: BLI, domains on anti-His tips.

The values below come from US20240002479A1 (REGENTS OF THE UNIVERSITY OF MICHIGAN, published 2024).

B1: anti-DENV NS1 IgG2b mouse monoclonal antibody (mAb) 2B7 (antibody, V domains shown)
VH: EVQLQQSGPELVKPGASVKMSCKASGCTLTNCFMHWMKQKPGQDLEWIGYINPYNDMTKYSENFKGKATLTSDKSSSTAFMELSSLTSEDSAVYYCARGYLLRTGCFDYWGQGTTLTVSS
VL: NIVLTQSPASLAVSLGQRATISCRASESVDSYGYSFMHWYQQKPGQPPKVLIYLASNLESGVPARFSGSGSRTDFTLTIDPVEADDAATYYCQQNNENPLTFGAGTKLELKR
On to B1, for which the binding result with DENV4 NS1 is “binds”; in test [1], “binds”; in test [2], “binds”; with DENV3 NS1, “binds”; in [3], “no binding”; with DENV1 NS1 [4], “binds”. For the same molecule, the binding result in [5] and in test [6] was “binds” throughout.

B2: 2B7 Fab (Fab, V domains shown)
VH: EVQLQQSGPELVKPGASVKMSCKASGCTLTNCFMHWMKQKPGQDLEWIGYINPYNDMTKYSENFKGKATLTSDKSSSTAFMELSSLTSEDSAVYYCARGYLLRTGCFDYWGQGTTLTVSS
VL: NIVLTQSPASLAVSLGQRATISCRASESVDSYGYSFMHWYQQKPGQPPKVLIYLASNLESGVPARFSGSGSRTDFTLTIDPVEADDAATYYCQQNNENPLTFGAGTKLELK
As for B2, the binding result is given as “binds” in the test with DENV1 NS1 [7] and “no binding” in [8].
